Holding throughout (assay): SEC
Background: In gel filtration, larger molecules generally elute earlier.

Experiment [1] addresses Nsp3 Ubl1 variant D80R E81R (SARS-CoV-2).
Experiment [2] addresses Nsp3 Ubl1 variant E26R E29R (SARS-CoV-2).
In experiment [3] the target is Nsp3 Ubl1 variant E49R E52R (SARS-CoV-2).
Experiment [4] concerns the target Nsp3 Ubl1 variant K33E K38E (SARS-CoV-2).
Experiment [5] deals with SARS-CoV-2 Nsp3 NAB domain, longer fragment, residues 1,050-1,216 (SARS-CoV-2).
Experiment [6] concerns the target SARS-CoV-2 Nsp3 ubiquitin-like 1 (Ubl1) domain, residues 1-111 (SARS-CoV-2).

In experiment [1], “Nsp3 Ubl1 variant D80R E81R (domain or fragment)” registered a stoichiometry N of 2.

In turn, “Nsp3 Ubl1 variant E26R E29R (domain or fragment)” showed a stoichiometry N in experiment [2] of 2.

Take “Nsp3 Ubl1 variant E49R E52R (domain or fragment)”: the stoichiometry N in experiment [3] amounted to 2.

Consider “Nsp3 Ubl1 variant K33E K38E (domain or fragment)”, for which the stoichiometry N in experiment [4] amounted to 2.

“SARS-CoV-2 Nsp3 NAB domain, longer fragment, residues 1,050-1,216 (domain or fragment)” came in with a stoichiometry N in experiment [5] of 2.

In experiment [6], “SARS-CoV-2 Nsp3 ubiquitin-like 1 (Ubl1) domain, residues 1-111 (domain or fragment)” registered a stoichiometry N of 2.

For orientation: stoichiometry N means the number of molecules, sites or subunits per partner or assembly.

(Values after article PMC12323374.)
